Results as given in patent US20240270846A1 (published 2024).
Changes are numbered by the printed parent chain.

T1: biotinylated CD3 epsilon epitope peptide (UniProt P07766 22-48, biotinylated)
T1 chain: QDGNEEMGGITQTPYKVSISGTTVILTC

B1: dBBDu174 (antibody, human IgG1, V domains shown)
VH: QVQLVESGGGLVQPGRSLRLSCAASGFTFSSAWMHWVRQAPGKGLEWVAQIKDRASAYNAYYAESVKGRFTISRDDSKNSIYLQMNSLKTEDTAVYYCRYVHYPSYVSFLPYYGVDAWGQGTTVTVSS
VL: DIVMTQSPLSLPVTPGEPASISCRSSQSLVHSNRNTYLHWYQQKPGQAPRLLIYKVSNRFSGVPDRFSGSGSGTDFTLKISRVEAEDVGVYYCGQGTQVPYTFGQGTKLEIK
notes: IgG: VH joined to human IgG1 CH1-Fc, GLS3000 as light chain
B2: dBBDu125 (antibody, human IgG1, V domains shown)
VH: QVQLVESGGGLVQPGRSLRLSCAASGFTFSIAWMHWVRQAPGKGLEWVAQIKDKVNGYTAYYAESVKGRFTISRDDSKNSIYLQMNSLKTEDTAVYYCRYVHYAAYYDVLGYGGVDAWGQGTTVTVSS
VL: B1 VL
notes: IgG: VH joined to human IgG1 CH1-Fc, GLS3000 as light chain; also called DXDU01_3_#019; DXDU01_3 #019
B3: Du115/DUL008 (antibody, V domains shown)
VH: QVQLVESGGGLVQPGRSLRLSCAASGFTFSNAWMHWVRQAPGKGLEWVAQIKDKANSYNTYYAPSVKGRFTISRDDSKNSIYLQMNSLKTEDTAVYYCRYVHYGSSYGFLFAGYGVDAWGQGTTVTVSS
VL: DIVMTQSPLSLPVTPGEPASISCQSSEELLHANRKTYLHWYQQKPGQAPRLLIYKVQNRFSGVPDRFSGSGSGTDFTLKISRVEAEDVGVYYCAQGTATPFTFGQGTKLEIK
notes: Human IgG1 format; also called dBBDu_115 with L008
B4: anti-human CD137 antibody described in WO2005/035584A1 (abbreviated as B) (antibody, V domains shown)
VH: QVQLQQWGAGLLKPSETLSLTCAVYGGSFSGYYWSWIRQSPEKGLEWIGEINHGGYVTYNPSLESRVTISVDTSKNQFSLKLSSVTAADTAVYYCARDYGPGNYDWYFDLWGRGTLVTVSS
VL: EIVLTQSPATLSLSPGERATLSCRASQSVSSYLAWYQQKPGQAPRLLIYDASNRATGIPARFSGSGSGTDFTLTISSLEPEDFAVYYCQQRSNWPPALTFGGGTKVEIK
notes: also called control anti-CD137 antibody
B5: NNS6f17 (CE115HA340 with WGEGVV inserted between Kabat positions 99 and 100), one-arm antibody (antibody)
chain 1: QVQLVESGGGLVQPGRSLRLSCAASGFTFSNAWMHWVRQAPGKGLEWVAQIKDKSNNYATYYAESVKGRFTISRDDSKNSIYLQMNSLKTEDTAVYYCRYVHYAAWGEGVVYYGVDAWGQGTTVTVSSASTKGPSVFPLAPSSKSTSGGTAALGCLVKDYFPEPVTVSWNSGALTSGVHTFPAVLQSSGLYSLSSVVTVPSSSLGTQTYICNVNHKPSNTKVDKKVEPKSCDKTHTCPPCPAPEAAGGPSVFLFPPKPKDTLMISRTPEVTCVVVDVSHEDPEVKFNWYVDGVEVHNAKTKPREEQYASTYRVVSVLTVLHQDWLNGKEYKCKVSNKALPAPIEKTISKAKGQPREPQVYTLPPSRCELTKNQVSLSCAVKGFYPSDIAVEWESNGQPENNYKTTPPVLDSDGSFFLVSKLTVDKSRWQQGNVFSCSVMHEALHNHYTQKSLSLSPDYKDDDDK
chain 2: EPKSSDKTHTCPPCPAPELLGGPSVFLFPPKPKDTLMISRTPEVTCVVVDVSHEDPEVKFNWYVDGVEVHNAKTKPREEQYNSTYRVVSVLTVLHQDWLNGKEYKCKVSNKALPAPIEKTISKAKGQPREPQVCTLPPSRDELTKNQVSLWCLVKGFYPSDIAVEWESNGQPENNYKTTPPVLDSDGSFFLYSKLTVDKSRWQQGNVFSCSVMHEALHNRYTQKSLSLSP
chain 3: DIVMTQSPLSLPVTPGEPASISCRSSQSLVHSNRNTYLHWYQQKPGQAPRLLIYKVSNRFSGVPDRFSGSGSGTDFTLKISRVEAEDVGVYYCGQGTQVPYTFGQGTKLEIKRTVAAPSVFIFPPSDEQLKSGTASVVCLLNNFYPREAKVQWKVDNALQSGNSQESVTEQDSKDSTYSLSSTLTLSKADYEKHKVYACEVTHQGLSSPVTKSFNRGEC
B6: NNS6f62 (CE115HA340 with NGGTRH inserted between Kabat positions 99 and 100), one-arm antibody (antibody)
chain 1: B5 chain 1 with W106N, E108G, G109T, V110R, V111H
chain 2: B5 chain 2
chain 3: B5 chain 3
B7: NNS6f54 (CE115HA340 with FEWVGW inserted between Kabat positions 99 and 100), one-arm antibody (antibody)
chain 1: B5 chain 1 with W106F, G107E, E108W, G109V, V110G, V111W
chain 2: B5 chain 2
chain 3: B5 chain 3
B8: NNS6f63 (CE115HA340 with GGGGWV inserted between Kabat positions 99 and 100), one-arm antibody (antibody)
chain 1: B5 chain 1 with W106G, E108G, V110W
chain 2: B5 chain 2
chain 3: B5 chain 3
B9: NNS6f27 (CE115HA340 with VWGSVW inserted between Kabat positions 99 and 100), one-arm antibody (antibody)
chain 1: B5 chain 1 with W106V, G107W, E108G, G109S, V111W
chain 2: B5 chain 2
chain 3: B5 chain 3
B10: NNS6f55 (CE115HA340 with AGRWLA inserted between Kabat positions 99 and 100), one-arm antibody (antibody)
chain 1: B5 chain 1 with W106A, E108R, G109W, V110L, V111A
chain 2: B5 chain 2
chain 3: B5 chain 3
B11: NNS6f29 (CE115HA340 with IYYPTN inserted between Kabat positions 99 and 100), one-arm antibody (antibody)
chain 1: B5 chain 1 with W106I, G107Y, E108Y, G109P, V110T, V111N
chain 2: B5 chain 2
chain 3: B5 chain 3
B12: NNS6f50 (CE115HA340 with LTGGLG inserted between Kabat positions 99 and 100), one-arm antibody (antibody)
chain 1: B5 chain 1 with W106L, G107T, E108G, V110L, V111G
chain 2: B5 chain 2
chain 3: B5 chain 3
B13: NNS6f52 (CE115HA340 with YMLGLG inserted between Kabat positions 99 and 100), one-arm antibody (antibody)
chain 1: B5 chain 1 with W106Y, G107M, E108L, V110L, V111G
chain 2: B5 chain 2
chain 3: B5 chain 3
B14: NNS6f59 (CE115HA340 with LLVQEG inserted between Kabat positions 99 and 100), one-arm antibody (antibody)
chain 1: B5 chain 1 with W106L, G107L, E108V, G109Q, V110E, V111G
chain 2: B5 chain 2
chain 3: B5 chain 3
B15: NNS6f47 (CE115HA340 with HFMWWG inserted between Kabat positions 99 and 100), one-arm antibody (antibody)
chain 1: B5 chain 1 with W106H, G107F, E108M, G109W, V110W, V111G
chain 2: B5 chain 2
chain 3: B5 chain 3
B16: NNS6f51 (CE115HA340 with GFLVLW inserted between Kabat positions 99 and 100), one-arm antibody (antibody)
chain 1: B5 chain 1 with W106G, G107F, E108L, G109V, V110L, V111W
chain 2: B5 chain 2
chain 3: B5 chain 3
B17: NNS6f56 (CE115HA340 with REATRW inserted between Kabat positions 99 and 100), one-arm antibody (antibody, V domains shown)
VH: QVQLVESGGGLVQPGRSLRLSCAASGFTFSNAWMHWVRQAPGKGLEWVAQIKDKSNNYATYYAESVKGRFTISRDDSKNSIYLQMNSLKTEDTAVYYCRYVHYAAREATRWYYGVDAWGQGTTVTVSS
VL: DIVMTQSPLSLPVTPGEPASISCRSSQSLVHSNRNTYLHWYQQKPGQAPRLLIYKVSNRFSGVPDRFSGSGSGTDFTLKISRVEAEDVGVYYCGQGTQVPYTFGQGTKLEIKR
B18: NNS6f71 (CE115HA340 with GWVLGS inserted between Kabat positions 99 and 100), one-arm antibody (antibody, V domains shown)
VH: B17 VH with R106G, E107W, A108V, T109L, R110G, W111S
VL: B17 VL
B19: NNS6f64 (CE115HA340 with LVSLTV inserted between Kabat positions 99 and 100), one-arm antibody (antibody, V domains shown)
VH: B17 VH with R106L, E107V, A108S, T109L, R110T, W111V
VL: B17 VL
B20: NNS6f67 (CE115HA340 with GLLRAA inserted between Kabat positions 99 and 100), one-arm antibody (antibody, V domains shown)
VH: B17 VH with R106G, E107L, A108L, T109R, R110A, W111A
VL: B17 VL
B21: NNS6f72 (CE115HA340 with EGIWWG inserted between Kabat positions 99 and 100), one-arm antibody (antibody, V domains shown)
VH: B17 VH with R106E, E107G, A108I, T109W, R110W, W111G
VL: B17 VL
B22: NNS6f58 (CE115HA340 with SWQVSR inserted between Kabat positions 99 and 100), one-arm antibody (antibody, V domains shown)
VH: B17 VH with R106S, E107W, A108Q, T109V, R110S, W111R
VL: B17 VL
B23: NNS6f68 (CE115HA340 with VEWGRW inserted between Kabat positions 99 and 100), one-arm antibody (antibody, V domains shown)
VH: B17 VH with R106V, A108W, T109G
VL: B17 VL
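Throughout, for ELISA signal, free CD3e 125 pmol/well: bead ELISA on streptavidin-coated magnetic beads, with the signal read as well fluorescence 2 min after APS-5 addition.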

What follows are binders tested against T2, biotin-labeled human CD137 fused to human IgG1 Fc fragment (human, biotin-labeled) (assay: competitive bead ELISA, decrease of signal on biotin-human CD137-Fc with 125 pmol/well free CD3 epsilon peptide against 0).
T2 construct: Immobilised on streptavidin beads through biotin; also called human CD137-Fc; biotin-human CD137-Fc
B1 showed a Signal decrease of 60.8%. In the case of B2, the Signal decrease is reported as 96.7%. B3 showed a Signal decrease of 97%. B4 gave a Signal decrease of 1.26%.

The binders below were run against T2, biotin-labeled human CD137 fused to … (assay: competitive bead ELISA, IgG on biotin-human CD137-Fc, competitor free CD3 epsilon peptide 125 pmol/well).
With B1 the “ELISA signal, free CD3e 125 pmol/well” value was 1880. In the case of B2, the “ELISA signal, free CD3e 125 pmol/well” value is reported as 2060. For B3, the “ELISA signal, free CD3e 125 pmol/well” value was 2620. B4 was tested, and the “ELISA signal, free CD3e 125 pmol/well” value was 98100.

Molecular target: T1, biotinylated CD3 epsilon epitope peptide
Test: SPR (Biacore); biotinylated CD3 epsilon epitope peptide on chip via streptavidin, antibody as analyte
Binder B5 has a Kd of 74 nM. Binder B6 has a Kd of 61 nM. Work on B7 yielded a Kd of 29 nM. For B8, the Kd was 69 nM. B9 gave a Kd of 38 nM. B10 gave a Kd of 31 nM. Work on B11 yielded a Kd of 90 nM. Work on B12 yielded a Kd of 71 nM. Work on B13 yielded a Kd of 52 nM. In the case of B14, the Kd is reported as 200 nM. In the case of B15, the Kd is reported as 31 nM. B16 showed a Kd of 31 nM. In the case of B17, the Kd is reported as 21 nM. Binder B18 has a Kd of 51 nM. In the case of B19, the Kd is reported as 78 nM. With B20 the Kd was 36 nM. B21 showed a Kd of 150 nM. B22 gave a Kd of 44 nM. Work on B23 yielded a Kd of 45 nM.

What follows are binders tested against T2, biotin-labeled human CD137 fused to … (assay: bead ELISA, IgG on biotin-human CD137-Fc on streptavidin beads, no free CD3e).
In the case of B1, the “ELISA signal, free CD3e 0 pmol/well” value is reported as 4800. For B2, the “ELISA signal, free CD3e 0 pmol/well” value was 61400. With B3 the “ELISA signal, free CD3e 0 pmol/well” value was 86200. For B4, the “ELISA signal, free CD3e 0 pmol/well” value was 99400.
